± gives the standard deviation.
Assay: protein stability index of a GFP-peptide fusion (GPS, HEK-293T) (PSI 1-6); higher = more stable
[1] = treatment: DMSO, c terminus: a fixed tail appended
[2] = treatment: MLN4924 1 uM, 8 h, c terminus: a fixed tail appended
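Further: 24-mer peptide tiles fused after GFP, lentivirally expressed, FACS-sorted into six equal bins by GFP/DsRed ratio, decoded by Illumina sequencing, PSI is the read-weighted mean bin number.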

Sequence	protein stability index [1]	protein stability index [2]	protein stability index (treatment: DMSO, c terminus: native)	protein stability index (treatment: MLN4924 1 uM, 8 h, c terminus: native)
EGPSVVKRPAPRTAPRQEKHERTH [SPRY1]	5.17 ± 0.29	5.13 ± 0.2		
LNGSSQPTTRNYPELNNNQYNRSS [CDC14A]	4.19 ± 0.17	4.34 ± 0.09		
PYHVDSLLQLSDACRFQEDQEMAR [TCF25]	4.36 ± 0.17	4.04 ± 0.21		
GVGKSAMTMQFISHRFPEDHDPTI [RIT1]	3.4 ± 0.24	3.46 ± 0.37		
SHPDTSYYIRYRGAVYADSGNFER [FEM1A]	2.88 ± 0.38	2.83 ± 0.28		
MMSVNGQAKTHTDSSEKELEPEAA [ACBD3]	5.45 ± 0.21	5.38 ± 0.23		
ERVVREALEKLRSEMEEEKRQAVN [ZMYND11]	4.59 ± 0.46	4.64 ± 0.063		
GLPRSRDCRVDLGSEVYRMLREPA [PDLIM4]	3.08 ± 0.15	3.39 ± 0.2		
TGEAGEELDLRLRLAQPSSPEVLT [RTN2]	4.9 ± 0.41	5.01 ± 0.29		
QLFFFHLFVGVDCFLLTAMAYDQF [OR3A1]	3.13 ± 0.23	3.41 ± 0.16		
MALEPNTTFLRKSLKAALKHLGP [FANCE]			2.48 ± 0.25	2.33 ± 0.17
LEEENKERAKREMVMYSITVAFWL [MFF]	2.29 ± 0.55	2.82 ± 0.46		
CWDMYRHDIDCQWVDITDVPPGDY [LOXL2]	2.7 ± 0.36	3.11 ± 0.3		
GTDIVRGCDPLVKPVGRQACDLQP [ADAMTSL2]	4.08 ± 0.22	4.22 ± 0.059		
AAGGVPGGGSNNGKTPVCHQCHKV [PDLIM7]	3.32 ± 0.62	3.85 ± 0.56		
LTINPAKRITAHEALKHPWVCQRS [CAMK2B]	2.55 ± 0.29	2.95 ± 0.16		
LHLASDFFLKHPDKDVRLLVACCL [PDS5B]	2.23 ± 0.79	2.39 ± 0.43		
HQLVMEGYNWCHDRNVVTIFSAPN [PPP2CA]	2.51 ± 0.14	2.49 ± 0.18		
NMTQDEFKSLFGSIGDIESCKLVR [ELAVL3]	3.28 ± 0.15	3.33 ± 0.46		
LCKIGSERSLVLDRLASNVAKRKS [IKZF1]	3.83 ± 0.24	3.93 ± 0.28		
MASSSTVPLGFHYETKYVVLSYLG [BCL2L13]	2.64 ± 0.48	2.33 ± 0.45		
SAGRSMPEASDQEEHLSPLDFLHS [RNF180]	5.07 ± 0.12	4.88 ± 0.28		

Sequence	protein stability index [1]	protein stability index [2]	protein stability index (treatment: DMSO, c terminus: native)	protein stability index (treatment: MLN4924 1 uM, 8 h, c terminus: native)
ESTFKNTEISFILGQEFDEVTADD [FABP4]	4.74 ± 0.13	5.03 ± 0.18		
HVPLLAEPSFAQFSQEIGLASLGA [TPH1]	2.93 ± 0.26	3.09 ± 0.12		
LICLKKNHEEEVNTLRSQLGDRLN [KRT34]	3.33 ± 0.21	3.45 ± 0.37		
PRSGEQAEGSPGGPGDSQGRKRRQ [CDKN1A]	5.56 ± 0.16	5.48 ± 0.27		
MYHYLQFAYYKLNDVRQAARSAAS [P3H4]	2.05 ± 0.42	2.33 ± 0.37		
AKGIPQRAPPKRKRKRVKQRINTY [PCMTD1]	4.41 ± 0.14	4.58 ± 0.16		
TANCEACTLGICGQGLKSYMTKPS [RTP4]	2.89 ± 0.025	3.01 ± 0.26		
GWLQHDFGHLSVFSTSKWNHLLHH [FADS1]	2.04 ± 0.44	2.19 ± 0.29		
SDEDDEEERRRRVFDVPIRRRRCS [FBXO3]	5.41 ± 0.32	5.42 ± 0.27		
VLDILTEQREWVLKSSILIAMAVY [INTS3]	2.57 ± 0.33	2.48 ± 0.61		
SPSESSETVLALVNCISPLKYFSD [DENND6A]	2.78 ± 0.3	2.8 ± 0.35		
SAESSGCNSHMPYGYAAQARARER [KCNA4]	4.43 ± 0.35	4.63 ± 0.2		
SLADQMSLLQSAWMEILILGVVYR [ESRRG]	2.88 ± 0.55	2.86 ± 0.42		
GYAVNVFDIQQGFDNPQVRFFLGD [NSDHL]	2.36 ± 0.38	2.57 ± 1.4		
LDGLIQQCGETMKETVNVKTVCGY [GMCL1]	3.1 ± 0.33	3.37 ± 0.36		
DLSVPLMDVGETAMVTADSKYCYG [FKBP8]	4.1 ± 0.31	4.44 ± 0.22		
LSFYNARTKQVLHTFKTRFTQPLL [FSD1]	2.45 ± 0.6	2.43 ± 0.6		
GVLILFLTFFAFLHCWLNAFAEML [SOAT1]	2.88 ± 0.4	2.85 ± 0.36		
AGIELIIEDDIRPEKQKRKPGLRR [MYBL2]	3.63 ± 0.24	4.26 ± 0.43		
LPGNHSTSQEIFRQRFRHLRYQET [ZNF232]	3.13 ± 0.17	3.39 ± 0.19		
PHIYGARIKGVEVFCPLDPPPPYE [FAM189A2]	2.96 ± 0.17	3.04 ± 0.19		
IEKVSVSTQTKKLSASSPRMLHRS [ZMYND11]	3.96 ± 0.23	4.03 ± 0.34		

Reference: the supplement of paper PMC10567573
